Target: the molecule itself
Assay: cryo-EM structure

B1: E. coli MraY (EcMraY), wild type (enzyme)
chain: MLVWLAEHLVKYYSGFNVFSYLTFRAIVSLLTALFISLWMGPRMIAHLQKLSFGQVVRNDGPESHFSKRGTPTMGGIMILTAIVISVLLWAYPSNPYVWCVLVVLVGYGVIGFVDDYRKVVRKDTKGLIARWKYFWMSVIALGVAFALYLAGKDTPATQLVVPFFKDVMPQLGLFYILLAYFVIVGTGNAVNLTDGLDGLAIMPTVFVAGGFALVAWATGNMNFASYLHIPYLRHAGELVIVCTAIVGAGLGFLWFNTYPAQVFMGDVGSLALGGALGIIAVLLRQEFLLVIMGGVFVVETLSVILQVGSFKLRGQRIFRMAPIHHHYELKGWPEPRVIVRFWIISLMLVLIGLATLKVR
  stoichiometry N: 2

— PMC12747129 (Science (New York, N.Y.), 2023)
